Test results taken from patent publication US20240109955A1.

Experiments:
Experiment in all cases: cell-based or functional assay
[1] = biological target: SARS-CoV-2 spike (S) protein of Omicron sublineage BA.2.75 (G446S) (SARS-CoV-2) (UniProt P0DTC2)
[2] = biological target: SARS-CoV-2 spike (S) protein of Omicron sublineage BJ.1 (R346T, V445P, G446S) (SARS-CoV-2) (UniProt P0DTC2)
[3] = biological target: SARS-CoV-2 spike (S) protein of Omicron sublineage BQ.1.1 (R346T, K444T, F486V) (SARS-CoV-2) (UniProt P0DTC2)
[4] = biological target: SARS-CoV-2 spike protein, Delta variant (B.1.617.2) (SARS-CoV-2)
[5] = biological target: SARS-CoV-2 spike (S) protein, Omicron variant BA.2.12.1 (SARS-CoV-2) (UniProt P0DTC2)
[6] = biological target: SARS-CoV-2 spike (S) protein, Omicron variant BA.1 (SARS-CoV-2) (UniProt P0DTC2)
[7] = biological target: SARS-CoV-2 spike (S) protein, Omicron variant BA.2 (SARS-CoV-2) (UniProt P0DTC2)
[8] = biological target: SARS-CoV-2 spike protein, C.1.2 variant (SARS-CoV-2)
[9] = biological target: SARS-CoV-2 spike protein, Mu variant (B.1.621) (SARS-CoV-2)
[10] = biological target: SARS-CoV-2 spike protein, Gamma variant (P.1) (SARS-CoV-2)
[11] = biological target: SARS-CoV-2 spike protein, Beta variant 1 (B.1.351 v1) (SARS-CoV-2)
[12] = biological target: SARS-CoV-2 spike protein, Alpha variant (B.1.1.7) (SARS-CoV-2)

MX468 (A19-61 × A23-58H/B1-182L CL-CH1) (bispecific antibody), sequence (chain): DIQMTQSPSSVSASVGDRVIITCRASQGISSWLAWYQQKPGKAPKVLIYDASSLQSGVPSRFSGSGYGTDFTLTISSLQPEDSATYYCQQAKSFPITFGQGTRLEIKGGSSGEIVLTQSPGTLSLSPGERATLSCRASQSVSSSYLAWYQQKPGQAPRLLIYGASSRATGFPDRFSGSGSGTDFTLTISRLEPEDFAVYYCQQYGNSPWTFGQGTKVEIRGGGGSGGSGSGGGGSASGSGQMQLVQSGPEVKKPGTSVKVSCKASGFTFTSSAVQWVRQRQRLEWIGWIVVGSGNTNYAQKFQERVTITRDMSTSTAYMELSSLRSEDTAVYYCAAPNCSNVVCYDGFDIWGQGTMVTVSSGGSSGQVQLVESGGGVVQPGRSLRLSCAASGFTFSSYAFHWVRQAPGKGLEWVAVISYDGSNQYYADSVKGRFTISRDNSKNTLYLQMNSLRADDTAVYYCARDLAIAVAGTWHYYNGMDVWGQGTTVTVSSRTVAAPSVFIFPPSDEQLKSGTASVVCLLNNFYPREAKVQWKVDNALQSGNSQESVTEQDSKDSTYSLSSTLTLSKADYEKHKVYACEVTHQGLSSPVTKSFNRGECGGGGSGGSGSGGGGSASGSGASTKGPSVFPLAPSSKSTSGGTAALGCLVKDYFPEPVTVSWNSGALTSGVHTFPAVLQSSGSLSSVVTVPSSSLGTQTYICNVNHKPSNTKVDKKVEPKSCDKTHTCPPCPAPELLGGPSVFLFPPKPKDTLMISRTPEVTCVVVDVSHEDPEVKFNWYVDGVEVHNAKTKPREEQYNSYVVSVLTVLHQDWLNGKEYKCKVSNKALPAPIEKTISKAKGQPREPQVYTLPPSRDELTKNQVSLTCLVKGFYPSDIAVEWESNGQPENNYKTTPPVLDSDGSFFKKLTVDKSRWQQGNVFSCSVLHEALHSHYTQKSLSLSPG
MX491 (A23-58H/B1-182L × A19-46 CL-CH1) (bispecific antibody), sequence (chain): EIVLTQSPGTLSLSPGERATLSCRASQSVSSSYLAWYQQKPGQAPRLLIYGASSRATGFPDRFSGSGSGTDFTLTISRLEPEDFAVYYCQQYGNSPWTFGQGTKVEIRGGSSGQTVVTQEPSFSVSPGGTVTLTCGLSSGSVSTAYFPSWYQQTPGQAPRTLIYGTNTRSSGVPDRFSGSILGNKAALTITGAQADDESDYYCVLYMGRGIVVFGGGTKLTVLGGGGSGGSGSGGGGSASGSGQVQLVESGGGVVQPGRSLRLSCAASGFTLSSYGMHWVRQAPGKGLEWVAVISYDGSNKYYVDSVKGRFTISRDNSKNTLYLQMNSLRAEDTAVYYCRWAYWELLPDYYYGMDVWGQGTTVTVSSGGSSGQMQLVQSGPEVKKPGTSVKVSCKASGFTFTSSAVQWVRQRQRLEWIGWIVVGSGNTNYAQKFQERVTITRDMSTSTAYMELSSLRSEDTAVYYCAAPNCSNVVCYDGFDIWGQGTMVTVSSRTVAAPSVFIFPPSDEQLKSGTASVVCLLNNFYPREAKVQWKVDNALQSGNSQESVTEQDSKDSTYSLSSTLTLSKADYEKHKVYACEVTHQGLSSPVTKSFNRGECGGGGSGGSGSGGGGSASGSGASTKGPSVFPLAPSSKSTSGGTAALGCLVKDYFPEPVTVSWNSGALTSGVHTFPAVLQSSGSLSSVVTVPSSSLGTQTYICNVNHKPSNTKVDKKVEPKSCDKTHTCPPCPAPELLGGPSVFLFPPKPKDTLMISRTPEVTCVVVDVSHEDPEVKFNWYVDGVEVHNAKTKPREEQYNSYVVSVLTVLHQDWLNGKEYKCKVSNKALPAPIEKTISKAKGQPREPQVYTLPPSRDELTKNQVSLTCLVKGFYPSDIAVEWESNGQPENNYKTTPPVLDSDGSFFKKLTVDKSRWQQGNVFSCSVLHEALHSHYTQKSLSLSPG
MX492 (A19-46 x A23-58H/B1-182L) bispecific, tetravalent molecule with Fc (bispecific antibody), sequence (chain): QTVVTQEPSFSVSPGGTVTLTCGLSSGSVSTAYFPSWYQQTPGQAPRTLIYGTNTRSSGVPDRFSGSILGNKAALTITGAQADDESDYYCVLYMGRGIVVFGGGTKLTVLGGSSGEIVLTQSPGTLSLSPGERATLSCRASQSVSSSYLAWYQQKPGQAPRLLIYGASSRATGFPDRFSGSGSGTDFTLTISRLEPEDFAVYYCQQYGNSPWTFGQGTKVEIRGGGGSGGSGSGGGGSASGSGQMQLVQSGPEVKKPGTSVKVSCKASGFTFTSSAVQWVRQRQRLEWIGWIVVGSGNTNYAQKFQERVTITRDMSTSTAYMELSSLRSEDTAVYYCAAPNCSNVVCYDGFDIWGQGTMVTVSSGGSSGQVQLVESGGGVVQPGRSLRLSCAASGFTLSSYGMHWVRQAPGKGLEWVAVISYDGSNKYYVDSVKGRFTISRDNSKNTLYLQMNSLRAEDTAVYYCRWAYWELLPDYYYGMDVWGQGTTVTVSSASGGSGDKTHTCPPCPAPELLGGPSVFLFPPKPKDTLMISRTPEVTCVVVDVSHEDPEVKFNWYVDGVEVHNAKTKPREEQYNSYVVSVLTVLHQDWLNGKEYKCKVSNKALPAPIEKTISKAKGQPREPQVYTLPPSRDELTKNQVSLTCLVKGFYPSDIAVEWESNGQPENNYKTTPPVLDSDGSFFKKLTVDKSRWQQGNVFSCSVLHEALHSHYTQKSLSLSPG
MX493 (A19-46 × A23-58H/B1-182L CL-CH1) (bispecific antibody), sequence (chain): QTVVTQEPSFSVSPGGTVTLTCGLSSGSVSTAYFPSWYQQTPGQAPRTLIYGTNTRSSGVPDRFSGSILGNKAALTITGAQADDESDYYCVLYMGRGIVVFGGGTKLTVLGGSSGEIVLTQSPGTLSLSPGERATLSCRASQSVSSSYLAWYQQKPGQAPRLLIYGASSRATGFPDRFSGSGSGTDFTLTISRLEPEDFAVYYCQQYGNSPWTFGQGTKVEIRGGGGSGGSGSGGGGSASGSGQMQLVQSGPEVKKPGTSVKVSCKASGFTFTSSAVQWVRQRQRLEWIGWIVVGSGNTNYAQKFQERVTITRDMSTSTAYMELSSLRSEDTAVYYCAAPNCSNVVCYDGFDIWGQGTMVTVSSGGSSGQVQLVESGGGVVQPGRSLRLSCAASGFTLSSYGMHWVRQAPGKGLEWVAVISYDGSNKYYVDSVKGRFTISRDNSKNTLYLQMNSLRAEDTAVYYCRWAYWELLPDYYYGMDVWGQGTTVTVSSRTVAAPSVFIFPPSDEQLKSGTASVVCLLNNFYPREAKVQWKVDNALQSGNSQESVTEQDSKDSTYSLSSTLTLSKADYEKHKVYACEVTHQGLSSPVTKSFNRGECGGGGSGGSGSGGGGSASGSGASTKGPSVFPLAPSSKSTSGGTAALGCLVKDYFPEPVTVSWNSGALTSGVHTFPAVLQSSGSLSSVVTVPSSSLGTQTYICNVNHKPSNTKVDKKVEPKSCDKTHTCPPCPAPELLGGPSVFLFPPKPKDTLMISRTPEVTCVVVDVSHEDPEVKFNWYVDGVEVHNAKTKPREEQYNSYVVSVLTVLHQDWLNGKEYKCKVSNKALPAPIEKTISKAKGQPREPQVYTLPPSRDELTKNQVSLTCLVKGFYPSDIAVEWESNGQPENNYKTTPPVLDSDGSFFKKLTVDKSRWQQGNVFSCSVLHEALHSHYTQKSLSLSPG
MX 490 (A23-58H/B1-182L × A19-46) (bispecific antibody), sequence (chain): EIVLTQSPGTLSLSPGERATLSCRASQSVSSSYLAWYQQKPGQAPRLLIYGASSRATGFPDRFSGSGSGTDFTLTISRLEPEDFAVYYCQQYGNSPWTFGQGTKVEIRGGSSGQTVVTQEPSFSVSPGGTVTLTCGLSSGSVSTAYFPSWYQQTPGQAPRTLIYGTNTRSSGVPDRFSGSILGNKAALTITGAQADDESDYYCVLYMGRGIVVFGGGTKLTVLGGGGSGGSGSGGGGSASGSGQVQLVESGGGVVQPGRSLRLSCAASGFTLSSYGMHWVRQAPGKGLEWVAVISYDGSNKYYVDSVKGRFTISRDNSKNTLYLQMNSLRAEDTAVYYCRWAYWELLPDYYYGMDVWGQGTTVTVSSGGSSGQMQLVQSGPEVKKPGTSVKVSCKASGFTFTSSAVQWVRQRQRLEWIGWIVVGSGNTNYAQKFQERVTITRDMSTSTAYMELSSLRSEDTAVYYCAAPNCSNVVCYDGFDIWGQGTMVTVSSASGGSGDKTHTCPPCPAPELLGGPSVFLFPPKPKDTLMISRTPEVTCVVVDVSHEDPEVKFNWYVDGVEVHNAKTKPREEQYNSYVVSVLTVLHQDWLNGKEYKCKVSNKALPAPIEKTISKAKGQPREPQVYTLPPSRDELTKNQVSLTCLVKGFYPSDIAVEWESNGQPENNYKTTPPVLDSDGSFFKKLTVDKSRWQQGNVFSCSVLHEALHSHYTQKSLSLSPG

Row | Substance | IC50, pseudovirus neutralization [5] | IC80, pseudovirus neutralization [5] | IC50, pseudovirus neutralization [6] | IC80, pseudovirus neutralization [6] | IC50, pseudovirus neutralization [7] | IC80, pseudovirus neutralization [7] | further results
1 | MX413 (A19-61 x A23-58H/B1-182L) bispecific, tetravalent molecule with Fc (bispecific antibody) | – | – | – | – | – | – | IC50, pseudovirus neutralization [1]: 21 nM; IC80, pseudovirus neutralization [1]: 71 nM; IC50, pseudovirus neutralization [2]: 3210 nM; IC80, pseudovirus neutralization [2]: > 10000 nM; IC50, pseudovirus neutralization [3]: > 10000 nM; IC80, pseudovirus neutralization [3]: > 10000 nM
2 | MX413 (A19-61 × A23-58H/B1-182L) (bispecific antibody) | 0.0149 nM | 0.0614 nM | 6.58 nM | 20.5 nM | 0.0141 nM | 0.0466 nM | IC50, pseudovirus neutralization [4]: 0.0193 nM; IC80, pseudovirus neutralization [4]: 0.0655 nM; IC50, pseudovirus neutralization [8]: 0.0109 nM; IC80, pseudovirus neutralization [8]: 0.026 nM; IC50, pseudovirus neutralization [9]: 0.089 nM; IC80, pseudovirus neutralization [9]: 0.166 nM; IC50, pseudovirus neutralization [10]: 0.025 nM; IC80, pseudovirus neutralization [10]: 0.0547 nM; IC50, pseudovirus neutralization [11]: 0.0386 nM; IC80, pseudovirus neutralization [11]: 0.092 nM; IC50, pseudovirus neutralization [12]: 0.0547 nM; IC80, pseudovirus neutralization [12]: 0.141 nM
3 | MX466 (A23-58H/B1-182L Cl-CH1 Tetravalent) (antibody) | 0.586 nM | 18 nM | 0.57 nM | 8.23 nM | 2.47 nM | 44.2 nM | –
4 | MX467 (A23-58H/B1-182L × A19-61 CL-CH1) (bispecific antibody) | 0.0181 nM | 0.127 nM | 18.5 nM | 69.4 nM | 0.0373 nM | 0.0738 nM | –
5 | MX468 (A19-61 × A23-58H/B1-182L CL-CH1) (bispecific antibody) | 0.0224 nM | 0.0698 nM | 1.33 nM | 4.06 nM | 0.0289 nM | 0.0617 nM | –
6 | MX491 (A23-58H/B1-182L × A19-46 CL-CH1) (bispecific antibody) | 1.44 nM | 7.81 nM | 0.0316 nM | 0.0928 nM | 0.0489 nM | 0.114 nM | –
7 | MX492 (A19-46 x A23-58H/B1-182L) bispecific, tetravalent molecule with Fc (bispecific antibody) | – | – | – | – | – | – | IC50, pseudovirus neutralization [1]: 3 nM; IC80, pseudovirus neutralization [1]: 10 nM; IC50, pseudovirus neutralization [2]: 783 nM; IC80, pseudovirus neutralization [2]: 2010 nM; IC50, pseudovirus neutralization [3]: > 10000 nM; IC80, pseudovirus neutralization [3]: > 10000 nM
8 | MX492 (A19-46 × A23-58H/B1-182L) (bispecific antibody) | 0.107 nM | 0.93 nM | 0.0058 nM | 0.0369 nM | 0.0201 nM | 0.0451 nM | –
9 | MX493 (A19-46 × A23-58H/B1-182L CL-CH1) (bispecific antibody) | 0.0331 nM | 0.0858 nM | 0.0158 nM | 0.0387 nM | 0.02 nM | 0.0464 nM | –
10 | MX 490 (A23-58H/B1-182L × A19-46) (bispecific antibody) | > 6.7 nM | > 6.7 nM | 0.22 nM | 0.484 nM | 0.392 nM | 0.896 nM | –
11 | bebtelovimab (LY1404, LY-CoV1404, LY3853133) (antibody) | – | – | – | – | – | – | IC50, pseudovirus neutralization [1]: 13 nM; IC80, pseudovirus neutralization [1]: 86 nM; IC50, pseudovirus neutralization [2]: > 10000 nM; IC80, pseudovirus neutralization [2]: > 10000 nM; IC50, pseudovirus neutralization [3]: > 10000 nM; IC80, pseudovirus neutralization [3]: > 10000 nM
